From paper PMC9482650, “Quantitative fragmentomics allow affinity mapping of interactomes” (Nature Communications, 2022) come the findings set out here.

As a reminder, the pKd is the negative decadic logarithm of the Kd, by convention in mol/L.

Among the targets are FRMPD2_3, Q68DX3; Inadl_5, Q8NI35; PDLIM1, O00151; Inadl_3, Q8NI35; LIMK2, P53671; DLG4_2, P78352; DLG1_2, Q12959; TJP1_3, Q07157.
Holding throughout (experiment): holdup assay
Set-up in all cases: key: below the threshold = too weak to quantify, mostly under pKd 3.1 to 4
What all share (conditions): plain residues with an end cap or a label only (N-terminal biotin on a linker: ado-ado)

Another experiment addresses T1, APBA2_2, Q99767.
T1 sequence (Q99767 654-744, limits assumed, looked up): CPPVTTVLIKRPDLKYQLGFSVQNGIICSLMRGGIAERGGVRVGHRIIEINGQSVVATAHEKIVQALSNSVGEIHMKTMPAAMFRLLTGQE

For a further experiment, the target named is T2, ARHGAP21, Q5T5U3.
T2 sequence (Q5T5U3 45-169, limits assumed, looked up): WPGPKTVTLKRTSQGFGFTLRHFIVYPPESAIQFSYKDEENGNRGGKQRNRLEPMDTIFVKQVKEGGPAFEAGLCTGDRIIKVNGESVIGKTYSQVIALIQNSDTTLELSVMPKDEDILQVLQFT

The next experiment deals with T3, DVL3, Q92997.
T3 sequence (Q92997 244-331, limits assumed, looked up): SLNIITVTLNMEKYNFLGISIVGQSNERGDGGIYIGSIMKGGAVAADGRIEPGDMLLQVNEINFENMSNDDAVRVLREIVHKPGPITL

The next experiment concerns the target T4, RAPGEF6, Q8TEU7.
T4 sequence (Q8TEU7 525-625, limits assumed, looked up): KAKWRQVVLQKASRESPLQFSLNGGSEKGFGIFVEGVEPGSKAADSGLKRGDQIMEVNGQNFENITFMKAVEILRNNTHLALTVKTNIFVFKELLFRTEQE

The target of the next experiment is T5, DLG3_2, Q92796.
T5 sequence (Q92796 221-321, limits assumed, looked up): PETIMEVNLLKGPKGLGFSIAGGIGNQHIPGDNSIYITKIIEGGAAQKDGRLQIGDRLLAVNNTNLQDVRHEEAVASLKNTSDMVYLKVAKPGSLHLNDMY

In another experiment the target is T6, HTRA4, P83105.
T6 sequence (P83105 378-476, limits assumed, looked up): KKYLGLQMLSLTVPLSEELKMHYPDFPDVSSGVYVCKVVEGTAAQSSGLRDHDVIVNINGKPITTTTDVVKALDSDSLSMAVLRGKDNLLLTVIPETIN

The next experiment deals with T7, TIAM2, Q8IVF5.
T7 sequence (Q8IVF5 885-986, limits assumed, looked up): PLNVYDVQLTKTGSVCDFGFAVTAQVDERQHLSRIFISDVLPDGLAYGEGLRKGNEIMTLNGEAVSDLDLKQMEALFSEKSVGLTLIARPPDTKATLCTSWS

The target in a further experiment is T8, SNTB1, Q13884.
T8 sequence (Q13884 107-205, limits assumed, looked up): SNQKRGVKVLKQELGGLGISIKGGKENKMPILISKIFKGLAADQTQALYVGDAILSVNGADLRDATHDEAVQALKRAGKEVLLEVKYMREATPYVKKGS

Another experiment has as its target T9, PDZD2_2, O15018.
T9 sequence (O15018 329-429, limits assumed, looked up): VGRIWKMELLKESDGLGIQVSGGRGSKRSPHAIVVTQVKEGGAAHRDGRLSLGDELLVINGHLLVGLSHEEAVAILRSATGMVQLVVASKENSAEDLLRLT

The next experiment addresses T10, LNX2_3, Q8N448.
T10 sequence (Q8N448 463-564, limits assumed, looked up): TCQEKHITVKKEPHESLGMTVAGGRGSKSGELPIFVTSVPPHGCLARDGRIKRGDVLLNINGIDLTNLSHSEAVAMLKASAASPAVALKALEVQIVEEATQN

In another experiment the target is T11, MPP6, Q9NZW5.
T11 sequence (Q9NZW5 125-219, limits assumed, looked up): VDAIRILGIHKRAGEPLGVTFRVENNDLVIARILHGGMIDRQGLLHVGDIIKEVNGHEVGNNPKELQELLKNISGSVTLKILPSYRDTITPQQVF

In the next experiment the target is T12, NHERF3_1, Q5T2W1.
T12 sequence (Q5T2W1 4-100, limits assumed, looked up): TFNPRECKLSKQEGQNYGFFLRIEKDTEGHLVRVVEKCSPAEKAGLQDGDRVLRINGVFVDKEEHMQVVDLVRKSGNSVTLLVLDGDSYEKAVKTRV

A further experiment has as its target T13, SNTG1, Q9NSN8.
T13 sequence (Q9NSN8 52-150, limits assumed, looked up): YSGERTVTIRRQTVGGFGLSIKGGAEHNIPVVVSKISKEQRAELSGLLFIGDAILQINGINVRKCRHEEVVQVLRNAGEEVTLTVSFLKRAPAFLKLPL

The next experiment concerns the target T14, RADIL, Q96JH8.
T14 sequence (Q96JH8 971-1071, limits assumed, looked up): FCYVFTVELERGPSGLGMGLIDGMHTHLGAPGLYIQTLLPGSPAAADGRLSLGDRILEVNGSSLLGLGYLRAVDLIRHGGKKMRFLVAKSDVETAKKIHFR

Sequence of FRMPD2_3, Q68DX3 (Q68DX3 1073-1166): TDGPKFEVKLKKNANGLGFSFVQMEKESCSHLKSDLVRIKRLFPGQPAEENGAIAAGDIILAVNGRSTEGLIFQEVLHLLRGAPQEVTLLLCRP
Sequence of DLG1_2, Q12959 (Q12959 314-412): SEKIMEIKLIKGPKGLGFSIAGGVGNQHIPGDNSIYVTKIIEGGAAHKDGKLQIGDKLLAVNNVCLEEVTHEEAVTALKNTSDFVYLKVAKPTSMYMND
Sequence of TJP1_3, Q07157 (Q07157 416-512): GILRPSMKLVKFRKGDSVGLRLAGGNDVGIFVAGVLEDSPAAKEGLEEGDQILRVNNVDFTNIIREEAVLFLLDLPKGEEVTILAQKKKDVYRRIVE
Sequence of PDLIM1, O00151 (O00151 1-87): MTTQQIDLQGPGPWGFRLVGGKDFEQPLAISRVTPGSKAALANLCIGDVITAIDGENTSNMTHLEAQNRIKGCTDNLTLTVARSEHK
Sequence of Inadl_5, Q8NI35 (Q8NI35 673-780): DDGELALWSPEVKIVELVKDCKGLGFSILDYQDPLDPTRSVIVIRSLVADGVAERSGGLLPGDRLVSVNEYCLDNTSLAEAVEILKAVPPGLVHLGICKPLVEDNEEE
Sequence of LIMK2, P53671 (P53671 143-248): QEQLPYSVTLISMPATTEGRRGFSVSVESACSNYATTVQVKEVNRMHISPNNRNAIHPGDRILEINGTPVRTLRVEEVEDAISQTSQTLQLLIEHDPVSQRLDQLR
Sequence of DLG4_2, P78352 (P78352 155-259): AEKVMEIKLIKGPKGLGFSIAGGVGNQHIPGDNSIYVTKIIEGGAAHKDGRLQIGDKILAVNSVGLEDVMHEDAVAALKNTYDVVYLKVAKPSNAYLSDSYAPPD
Sequence of Inadl_3, Q8NI35 (Q8NI35 359-469): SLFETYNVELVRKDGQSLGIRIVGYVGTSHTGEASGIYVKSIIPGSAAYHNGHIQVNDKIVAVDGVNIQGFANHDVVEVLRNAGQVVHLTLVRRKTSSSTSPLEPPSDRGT

SKQFDKNAYV [CLDN10, P78369]: the negative-log Kd (pKd) entry in the experiment with APBA2_2, Q99767 is “below the threshold”; in the experiment with FRMPD2_3, Q68DX3, “below the threshold”; in the experiment with ARHGAP21, Q5T5U3, 3.84; in the experiment with Inadl_5, Q8NI35, 3.52; in the experiment with PDLIM1, O00151, “below the threshold”; with DVL3, Q92997, “below the threshold”. The pKd result with RAPGEF6, Q8TEU7 is listed as “below the threshold”; with Inadl_3, Q8NI35, “below the threshold”; with DLG3_2, Q92796, “below the threshold”; with LIMK2, P53671, “below the threshold”; with HTRA4, P83105, “below the threshold”; with TIAM2, Q8IVF5 it was “below the threshold”. Further, the pKd entry was “below the threshold” with SNTB1, Q13884; 5.11 in the experiment with PDZD2_2, O15018; “below the threshold” with LNX2_3, Q8N448; “below the threshold” with MPP6, Q9NZW5; 3.52 with DLG4_2, P78352; 4.85 with NHERF3_1, Q5T2W1. The pKd result was “below the threshold” with DLG1_2, Q12959; “below the threshold” with TJP1_3, Q07157; “below the threshold” with SNTG1, Q9NSN8; 4.18 in the experiment with RADIL, Q96JH8.
Consider VKQYADVEGF [HNRNPK, P61978;P61978-2], for which the negative-log Kd (pKd) result with APBA2_2, Q99767 was “below the threshold”; with FRMPD2_3, Q68DX3 it was “below the threshold”; with ARHGAP21, Q5T5U3 it was “below the threshold”; with Inadl_5, Q8NI35, “below the threshold”; with PDLIM1, O00151, “below the threshold”; with DVL3, Q92997 it was “below the threshold”. Also, the pKd result is “below the threshold” with RAPGEF6, Q8TEU7; “below the threshold” with Inadl_3, Q8NI35; 4.09 with DLG3_2, Q92796; “below the threshold” with LIMK2, P53671; “below the threshold” with HTRA4, P83105; 3.94 with TIAM2, Q8IVF5. Besides, the pKd entry with SNTB1, Q13884 is on record as “below the threshold”; with PDZD2_2, O15018, “below the threshold”; with LNX2_3, Q8N448, “below the threshold”; with DLG4_2, P78352, “below the threshold”; with TJP1_3, Q07157, “below the threshold”; with SNTG1, Q9NSN8, “below the threshold”. Also, the pKd entry in the experiment with RADIL, Q96JH8 was “below the threshold”.
Take PSDSVGKDVF [EGLN1, Q9GZT9]: the pKd result with APBA2_2, Q99767 is “below the threshold”; with FRMPD2_3, Q68DX3, “below the threshold”; with ARHGAP21, Q5T5U3 it was 3.47; with Inadl_5, Q8NI35, “below the threshold”; with PDLIM1, O00151 it was “below the threshold”; in the experiment with DVL3, Q92997, “below the threshold”. Besides, the pKd entry with RAPGEF6, Q8TEU7 is “below the threshold”; in the experiment with Inadl_3, Q8NI35, “below the threshold”; with DLG3_2, Q92796 it was 4.07; in the experiment with LIMK2, P53671 it was “below the threshold”; with HTRA4, P83105 it was “below the threshold”; with TIAM2, Q8IVF5, 4.05. Further, the pKd result with SNTB1, Q13884 was “below the threshold”; with PDZD2_2, O15018 it was 3.62; with LNX2_3, Q8N448, “below the threshold”; in the experiment with MPP6, Q9NZW5, “below the threshold”; in the experiment with DLG4_2, P78352, “below the threshold”; with NHERF3_1, Q5T2W1, “below the threshold”. Besides, the pKd result with DLG1_2, Q12959 is “below the threshold”; with TJP1_3, Q07157 it was “below the threshold”; in the experiment with SNTG1, Q9NSN8, “below the threshold”; in the experiment with RADIL, Q96JH8, “below the threshold”.
As for VYEVPVETKF [SLC26A3, P40879], the pKd result was “below the threshold” in the experiment with APBA2_2, Q99767; 3.52 with FRMPD2_3, Q68DX3; “below the threshold” with ARHGAP21, Q5T5U3; “below the threshold” with Inadl_5, Q8NI35; “below the threshold” with PDLIM1, O00151; “below the threshold” in the experiment with DVL3, Q92997. Further, the pKd result in the experiment with RAPGEF6, Q8TEU7 is “below the threshold”; in the experiment with Inadl_3, Q8NI35, “below the threshold”; with DLG3_2, Q92796, 4.13; with LIMK2, P53671, “below the threshold”; with HTRA4, P83105, “below the threshold”; in the experiment with TIAM2, Q8IVF5 it was 3.98. In addition, the pKd result in the experiment with SNTB1, Q13884 was “below the threshold”; in the experiment with PDZD2_2, O15018 it was 3.72; with LNX2_3, Q8N448 it was “below the threshold”; with MPP6, Q9NZW5 it was “below the threshold”; with DLG4_2, P78352 it was 3.66; in the experiment with NHERF3_1, Q5T2W1, 5.51. For the same molecule, the pKd is 3.59 with DLG1_2, Q12959; “below the threshold” with TJP1_3, Q07157; “below the threshold” in the experiment with SNTG1, Q9NSN8; “below the threshold” in the experiment with RADIL, Q96JH8.
PAALPESTHM [SLC9A3, P48764]: the negative logarithm of the Kd (pKd) result in the experiment with APBA2_2, Q99767 was “below the threshold”; in the experiment with FRMPD2_3, Q68DX3 it was “below the threshold”; with ARHGAP21, Q5T5U3, 4.05; in the experiment with Inadl_5, Q8NI35 it was “below the threshold”; with PDLIM1, O00151, “below the threshold”; with DVL3, Q92997, “below the threshold”. The negative logarithm of the Kd (pKd) entry is “below the threshold” in the experiment with RAPGEF6, Q8TEU7; “below the threshold” with Inadl_3, Q8NI35; “below the threshold” in the experiment with DLG3_2, Q92796; “below the threshold” with LIMK2, P53671; 3.9 in the experiment with HTRA4, P83105; “below the threshold” with TIAM2, Q8IVF5. Further, the negative-log Kd (pKd) entry is “below the threshold” in the experiment with SNTB1, Q13884; “below the threshold” with PDZD2_2, O15018; “below the threshold” in the experiment with LNX2_3, Q8N448; “below the threshold” with MPP6, Q9NZW5; “below the threshold” with DLG4_2, P78352; 5.37 with NHERF3_1, Q5T2W1. In addition, the pKd entry with DLG1_2, Q12959 was “below the threshold”; with TJP1_3, Q07157 it was “below the threshold”; with SNTG1, Q9NSN8, “below the threshold”; with RADIL, Q96JH8 it was “below the threshold”.
